Laboratory results published in IntAct's records for PubMed 16571665.

B1: Protein phosphatase 2C 77 (Arabidopsis thaliana (Mouse-ear cress)), O04719 (parent)
chain: MDEVSPAVAVPFRPFTDPHAGLRGYCNGESRVTLPESSCSGDGAMKDSSFEINTRQDSLTSSSSAMAGVDISAGDEINGSDEFDPRSMNQSEKKVLSRTESRSLFEFKCVPLYGVTSICGRRPEMEDSVSTIPRFLQVSSSSLLDGRVTNGFNPHLSAHFFGVYDGHGGSQVANYCRERMHLALTEEIVKEKPEFCDGDTWQEKWKKALFNSFMRVDSEIETVAHAPETVGSTSVVAVVFPTHIFVANCGDSRAVLCRGKTPLALSVDHKPDRDDEAARIEAAGGKVIRWNGARVFGVLAMSRSIGDRYLKPSVIPDPEVTSVRRVKEDDCLILASDGLWDVMTNEEVCDLARKRILLWHKKNAMAGEALLPAEKRGEGKDPAAMSAAEYLSKMALQKGSKDNISVVVVDLKGIRKFKSKSLN
partner: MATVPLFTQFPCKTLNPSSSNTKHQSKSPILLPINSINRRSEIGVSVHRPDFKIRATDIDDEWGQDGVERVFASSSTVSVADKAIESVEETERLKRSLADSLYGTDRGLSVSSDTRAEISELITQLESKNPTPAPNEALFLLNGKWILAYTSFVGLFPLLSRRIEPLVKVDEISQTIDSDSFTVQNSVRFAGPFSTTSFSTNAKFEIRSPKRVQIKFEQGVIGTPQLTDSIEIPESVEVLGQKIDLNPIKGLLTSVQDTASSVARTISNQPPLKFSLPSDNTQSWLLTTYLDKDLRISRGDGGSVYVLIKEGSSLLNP

Variants of: B1
Settings: with pap1_arath PAP1, O81439

| effect of a mutation on the interaction | Variant |
| --- | --- |
| disrupting interaction strength | G168D |

Variants of: B1
Settings: with pap1_arath PAP1, O81439
Remark: another data set of the same source

| effect of a mutation on the interaction | Variant |
| --- | --- |
| disrupting interaction | G168D |
